{
  "source": "paper PMC4319893",
  "about": "(PLoS ONE, 2015)",
  "binders": {"B1": {"name": "CRIPT-06 (1) (peptide)", "peptide": "YKQTSV", "notes": "C-terminal hexapeptide of CRIPT; also called CRIPT hexapeptide; YKQTSV; source: synthetic peptide"}},
  "target": "T1, SAP-97 PDZ1-2-3 (human, UniProt Q12959 220-554)",
  "T1 construct": "human SAP-97, residues 220-554; Synthetic DNA in a modified pRSET vector; source: E. coli BL21(DE3)pLysS, purified (His-Trap IMAC, MonoQ ion exchange)",
  "T1 sequence (Q12959 220-554)": "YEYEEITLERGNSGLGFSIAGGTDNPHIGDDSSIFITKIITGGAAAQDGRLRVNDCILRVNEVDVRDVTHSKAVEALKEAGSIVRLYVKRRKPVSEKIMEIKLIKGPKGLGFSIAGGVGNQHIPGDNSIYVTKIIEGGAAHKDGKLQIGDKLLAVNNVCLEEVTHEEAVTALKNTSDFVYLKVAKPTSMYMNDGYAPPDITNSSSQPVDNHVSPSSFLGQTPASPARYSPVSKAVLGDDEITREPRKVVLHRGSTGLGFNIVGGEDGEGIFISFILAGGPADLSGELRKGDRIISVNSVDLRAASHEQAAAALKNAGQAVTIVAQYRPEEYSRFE",
  "assay": "fluorescence polarisation; competition against the monomeric CRIPT probe; 50 mM TRIS, 100 mM NaCl, 1 mM EDTA, 1 mM DTT; Ki calculated according to Nikolovska-Coleska et al.",
  "conditions": "both partners purified",
  "data": [
    {"binder": "B1", "values": [
      {"measurement": "Ki", "result": 1000, "unit": "nM"}
    ]}
  ]
}
